{"source": "paper PMC6433916", "key": {"GST-C/EBPβ-bZIP (rat) [1]": {"target": "T1, GST-C/EBPβ-bZIP (rat) (UniProt P21272)", "T1 sequence": "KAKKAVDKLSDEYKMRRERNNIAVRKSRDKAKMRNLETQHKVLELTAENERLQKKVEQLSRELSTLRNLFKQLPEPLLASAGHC", "experiment": "fluorescence anisotropy competition", "settings": "25 mM Tris-HCl pH 7.6, 75 mM NaCl, 150 mM KCl, 5 mM MgCl2, 0.1 mM DTT, 0.01% NP-40, room temperature, 20 min"}, "GST-C/EBPβ-bZIP (rat) [2]": {"target": "T1, GST-C/EBPβ-bZIP (rat)", "experiment": "fluorescence anisotropy", "settings": "25 mM Tris-HCl pH 7.6, 75 mM NaCl, 150 mM KCl, 5 mM MgCl2, 0.1 mM DTT, 0.01% NP-40, room temperature, 20 min"}}, "note": "pKd, pKi: −log10 of the molar value."}
{"sequence": "CCCTGATTGCAAAATAGGCTC (double strand) [BS2 competitor]", "values": [{"measurement": "pKi", "setting": "GST-C/EBPβ-bZIP (rat) [1]", "value": 7.18}]}
{"sequence": "CCCTGATTGCGCAATAGGCTC (double strand) [Consensus C/EBPβ competitor]", "values": [{"measurement": "pKi", "setting": "GST-C/EBPβ-bZIP (rat) [1]; vs 15 nM BS1 probe, 125 nM protein", "value": 7.57}]}
{"sequence": "CCCTGCTTACACAATAGGCTC (double strand) [BS1 competitor]", "values": [{"measurement": "pKi", "setting": "GST-C/EBPβ-bZIP (rat) [1]", "value": 7.08}]}
{"sequence": "CCCTGCTTGCATAACAGGCTC (double strand) [HPV18 BS2L competitor]", "values": [{"measurement": "pKi", "setting": "GST-C/EBPβ-bZIP (rat) [1]", "value": 6.81}]}
{"sequence": "TTTGGCTTACACAATTGCTTT (double strand) [BS1 probe]", "values": [{"measurement": "pKd", "setting": "GST-C/EBPβ-bZIP (rat) [2]", "value": 7.21}]}
